This passage reports stoichiometry N and Kd results from article PMC11068563, “The MCU and MCUb amino-terminal domains tightly interact: mechanisms for low conductance assembly of the mitochondrial calcium uniporter complex” (iScience, 2024).

Assay [1] deals with MCU amino-terminal domain (MCU-NTD), MCU residues 72-189 (human) (UniProt Q8NE86). Put plainly: cross-linking; 1 mM BS-3, 90 min, 20 mM HEPES (pH 8.4), 150 mM NaCl, 1 mM DTT, ambient temperature; proteins at 67.5 uM, mix with 67.5 uM or 33.8 uM of each; SDS-PAGE, Coomassie.
For assay [2], the target named is MCU amino-terminal domain (MCU-NTD), MCU 72-189 (human) (UniProt Q8NE86). The assay is described as follows: SEC-MALS; 100 uL injected at 3.0 mg mL-1 (mixed sample: final 1.5 mg mL-1 of each component); Superdex 200 Increase 10/300 GL; 20 mM Tris (pH 8.5), 150 mM NaCl, 1 mM DTT, 10 C; with 5 mM MgCl2.
Assay [3] has the same target. The assay is described as follows: SEC-MALS; 100 uL injected at 3.0 mg mL-1 (mixed sample: 3 mg mL-1 each mixed, final 1.5 mg mL-1 of each component); Superdex 200 Increase 10/300 GL; 20 mM Tris (pH 8.5), 150 mM NaCl, 1 mM DTT, 10 C; no divalent cations.
Assay [4] has the same target. Put plainly: SEC-MALS; 100 uL injected at 3.0 mg mL-1 (mixed sample: final 1.5 mg mL-1 of each component); Superdex 200 Increase 10/300 GL; 20 mM Tris (pH 8.5), 150 mM NaCl, 1 mM DTT, 10 C; with 5 mM CaCl2.
Assay [5] addresses T1, MCU-NTD-D147R, MCU 72-189 D147R (human, UniProt Q8NE86-1 72-189, D147R).
T1 construct: mitochondrial calcium uniporter (MCU), Homo sapiens, GenBank NP_612366.1, N-terminal domain, residues 72-189, with D147R
T1 sequence (looked up): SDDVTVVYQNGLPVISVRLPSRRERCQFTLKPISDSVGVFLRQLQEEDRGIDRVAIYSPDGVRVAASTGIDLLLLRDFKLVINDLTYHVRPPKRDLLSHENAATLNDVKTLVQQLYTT
The assay is described as follows: other fluorescence titration; steady-state fluorescein fluorescence; ~0.1 uM fluorescein-MCUb-NTD titrated with unlabelled MCU-NTD variant; 20 mM Tris (pH 8.5), 150 mM NaCl, 1 mM DTT, 0.0001% (v/v) NP-40; 22.5 C; one-site model. To be noted: both partners purified.

Assay [6] addresses T1, MCU-NTD-D147R, MCU 72-189 D147R. The assay is described as follows: MST; ~0.5 uM Red-(NHS)-MCUb-NTD titrated with unlabelled MCU-NTD variant; 20 mM Tris (pH 8.5), 150 mM NaCl, 1 mM DTT, 0.05% (v/v) NP-40; 22 C; one-site model. To be noted: both partners purified.

In assay [1], “MCU amino-terminal domain (MCU-NTD), MCU residues 72-189 (from UniProt Q8NE86-1 72-189) (domain or fragment)” had a stoichiometry N of 2.

For “MCU amino-terminal domain (MCU-NTD), MCU 72-189 (from UniProt Q8NE86-1 72-189) (domain or fragment)”, the stoichiometry N in assay [2] turned out to be 1.05; in assay [3], 0.98; in assay [4], 0.96.

B1: Fluorescein-MCUb-NTD (MCUb 58-159 labelled with fluorescein-MTS at Cys82 and Cys147) (domain or fragment, human, UniProt Q9NWR8 58-159, looked up)
chain: DEITVIYRHGLPLVTLTLPSRKERCQFVVKPMLSTVGSFLQDLQNEDKGIKTAAIFTADGNMISASTLMDILLMNDFKLVINKIAYDVQCPKREKPSNEHTA
modifications: fluorescein (fluorescein-methane thiosulfonate) on Cys82 and Cys147
notes: MCU dominant negative beta subunit (MCUb), Homo sapiens, GenBank NP_060388.2, N-terminal domain, residues 58-159; also called MCUb-NTD-fluorescein; source: E. coli BL21(DE3) codon plus, purified (Ni-NTA, thrombin, SEC); labelled with fluorescein-MTS; not shown: 6xHis, N-terminal, cleaved
B1 gave a dissociation constant (Kd) in assay [5] of 0.25 µM.

B2: Red-(NHS)-MCUb-NTD (MCUb 58-159 labelled with Red-NHS on primary amines) (domain or fragment, human, UniProt Q9NWR8 58-159, looked up)
chain: DEITVIYRHGLPLVTLTLPSRKERCQFVVKPMLSTVGSFLQDLQNEDKGIKTAAIFTADGNMISASTLMDILLMNDFKLVINKIAYDVQCPKREKPSNEHTA
modifications: Red-NHS dye covalently linked to primary amines
notes: MCU dominant negative beta subunit (MCUb), Homo sapiens, GenBank NP_060388.2, N-terminal domain, residues 58-159; also called Red-(NHS)-labeled MCUb-NTD; source: E. coli BL21(DE3) codon plus, purified (Ni-NTA, thrombin, SEC); labelled with the RED-NHS labeling kit (NanoTemper); not shown: 6xHis, N-terminal, cleaved
As to B2, the equilibrium dissociation constant (Kd) in assay [6] worked out at 11.3 µM.
